Source: IntAct's records for PubMed 19197237

B1: Peroxisomal biogenesis factor 19 (Homo sapiens), P40855 (parent)
chain: MAAAEEGCSVGAEADRELEELLESALDDFDKAKPSPAPPSTTTAPDASGPQKRSPGDTAKDALFASQEKFFQELFDSELASQATAEFEKAMKELAEEEPHLVEQFQKLSEAAGRVGSDMTSQQEFTSCLKETLSGLAKNATDLQNSSMSEEELTKAMEGLGMDEGDGEGNILPIMQSIMQNLLSKDVLYPSLKEITEKYPEWLQSHRESLPPEQFEKYQEQHSVMCKICEQFEAETPTDSETTQKARFEMVLDLMQQLQDLGHPPKELAGEMPPGLNFDLDALNLSGPPGASGEQCLIM
B2: Peroxisomal membrane protein PEX14 (Homo sapiens), O75381 (parent)
chain: MASSEQAEQPSQPSSTPGSENVLPREPLIATAVKFLQNSRVRQSPLATRRAFLKKKGLTDEEIDMAFQQSGTAADEPSSLGPATQVVPVQPPHLISQPYSPAGSRWRDYGALAIIMAGIAFGFHQLYKKYLLPLILGGREDRKQLERMEAGLSELSGSVAQTVTQLQTTLASVQELLIQQQQKIQELAHELAAAKATTSTNWILESQNINELKSEINSLKGLLLNRRQFPPSPSAPKIPSWQIPVKSPSPSSPAAVNHHSSSDISPVSNESTSSSPGKEGHSPEGSTVTYHLLGPQEEGEGVVDVKGQVRMEVQGEEEKREDKEDEEDEEDDDVSHVDEEDCLGVQREDRRGGDGQINEQVEKLRRPEGASNESERD
partner: B1 chain

Variants of: B1
Settings: with pex14_human PEX14, O75381

Variant	effect of a mutation on the interaction
MAAAEEGCSVGAEADRELEELLESALDDFDKAKPSPAPPSTTTAPDASGPQKRSPGDTAKDALFASQEKFFQELADSELASQATAEFEKAMKELAEEEPHLVEQFQKLSEAAGRVGSDMTSQQEFTSCLKETLSGLAKNATDLQNSSMSEEELTKAMEGLGMDEGDGEGNILPIMQSIMQNLLSKDVLYPSLKEITEKYPEWLQSHRESLPPEQFEKYQEQHSVMCKICEQFEAETPTDSETTQKARFEMVLDLMQQLQDLGHPPKELAGEMPPGLNFDLDALNLSGPPGASGEQCLIM [F75A]	disrupting interaction

Variants of: B1
Settings: with pex14_human PEX14, O75381
Remark: another data set of the same source

Variant	effect of a mutation on the interaction
MAAAEEGCSVGAEADRELEELLESALDDFDKAKPSPAPPSTTTAPDASGPQKRSPGDTAKDALFASQEKFFQEAFDSELASQATAEFEKAMKELAEEEPHLVEQFQKLSEAAGRVGSDMTSQQEFTSCLKETLSGLAKNATDLQNSSMSEEELTKAMEGLGMDEGDGEGNILPIMQSIMQNLLSKDVLYPSLKEITEKYPEWLQSHRESLPPEQFEKYQEQHSVMCKICEQFEAETPTDSETTQKARFEMVLDLMQQLQDLGHPPKELAGEMPPGLNFDLDALNLSGPPGASGEQCLIM [L74A]	disrupting interaction

Variants of: B1
Settings: with pex14_human PEX14, O75381
Remark: another data set of the same source

Variant	effect of a mutation on the interaction
MAAAEEGCSVGAEADRELEELLESALDDFDKAKPSPAPPSTTTAPDASGPQKRSPGDTAKDALFASQEKFAQELFDSELASQATAEFEKAMKELAEEEPHLVEQFQKLSEAAGRVGSDMTSQQEFTSCLKETLSGLAKNATDLQNSSMSEEELTKAMEGLGMDEGDGEGNILPIMQSIMQNLLSKDVLYPSLKEITEKYPEWLQSHRESLPPEQFEKYQEQHSVMCKICEQFEAETPTDSETTQKARFEMVLDLMQQLQDLGHPPKELAGEMPPGLNFDLDALNLSGPPGASGEQCLIM [F71A]	disrupting interaction

Variants of: B1
Settings: with pex14_human PEX14, O75381
Remark: another data set of the same source

Variant	effect of a mutation on the interaction
MAAAEEGCSVGAEADRELEELLESALDDFDKAKPSPAPPSTTTAPDASGPQKRSPGDTAKDALFASQAKFFQELFDSELASQATAEFEKAMKELAEEEPHLVEQFQKLSEAAGRVGSDMTSQQEFTSCLKETLSGLAKNATDLQNSSMSEEELTKAMEGLGMDEGDGEGNILPIMQSIMQNLLSKDVLYPSLKEITEKYPEWLQSHRESLPPEQFEKYQEQHSVMCKICEQFEAETPTDSETTQKARFEMVLDLMQQLQDLGHPPKELAGEMPPGLNFDLDALNLSGPPGASGEQCLIM [E68A]	disrupting interaction

Variants of: B1
Settings: with pex14_human PEX14, O75381
Remark: another data set of the same source

Variant	effect of a mutation on the interaction
MAAAEEGCSVGAEADRELEELLESALDDFDKAKPSPAPPSTTTAPDASGPQKRSPGDTAKDALFASQEKAFQELFDSELASQATAEFEKAMKELAEEEPHLVEQFQKLSEAAGRVGSDMTSQQEFTSCLKETLSGLAKNATDLQNSSMSEEELTKAMEGLGMDEGDGEGNILPIMQSIMQNLLSKDVLYPSLKEITEKYPEWLQSHRESLPPEQFEKYQEQHSVMCKICEQFEAETPTDSETTQKARFEMVLDLMQQLQDLGHPPKELAGEMPPGLNFDLDALNLSGPPGASGEQCLIM [F70A]	disrupting interaction

Variants of: B2
Settings: with pex19_human PEX19, P40855

Variant	effect of a mutation on the interaction
MASSEQAEQPSQPSSTPGSENVLPREPLIATAVKFLQNSRVRQSPLATRRAFLKKEGLTDEEIDMAFQQSGTAADEPSSLGPATQVVPVQPPHLISQPYSPAGSRWRDYGALAIIMAGIAFGFHQLYKKYLLPLILGGREDRKQLERMEAGLSELSGSVAQTVTQLQTTLASVQELLIQQQQKIQELAHELAAAKATTSTNWILESQNINELKSEINSLKGLLLNRRQFPPSPSAPKIPSWQIPVKSPSPSSPAAVNHHSSSDISPVSNESTSSSPGKEGHSPEGSTVTYHLLGPQEEGEGVVDVKGQVRMEVQGEEEKREDKEDEEDEEDDDVSHVDEEDCLGVQREDRRGGDGQINEQVEKLRRPEGASNESERD [K56E]	decreasing interaction

Variants of: B2
Settings: with pex19_human PEX19, P40855
Remark: another data set of the same source

Variant	effect of a mutation on the interaction
MASSEQAEQPSQPSSTPGSENVLPREPLIATAVKFLQNSRVRQSPLATRRAWLKKKGLTDEEIDMAFQQSGTAADEPSSLGPATQVVPVQPPHLISQPYSPAGSRWRDYGALAIIMAGIAFGFHQLYKKYLLPLILGGREDRKQLERMEAGLSELSGSVAQTVTQLQTTLASVQELLIQQQQKIQELAHELAAAKATTSTNWILESQNINELKSEINSLKGLLLNRRQFPPSPSAPKIPSWQIPVKSPSPSSPAAVNHHSSSDISPVSNESTSSSPGKEGHSPEGSTVTYHLLGPQEEGEGVVDVKGQVRMEVQGEEEKREDKEDEEDEEDDDVSHVDEEDCLGVQREDRRGGDGQINEQVEKLRRPEGASNESERD [F52W]	disrupting interaction

Variants of: B2
Settings: with pex19_human PEX19, P40855
Remark: another data set of the same source

Variant	effect of a mutation on the interaction
MASSEQAEQPSQPSSTPGSENVLPREPLIATAVKFLQNSRVRQSPLATERAFLKKKGLTDEEIDMAFQQSGTAADEPSSLGPATQVVPVQPPHLISQPYSPAGSRWRDYGALAIIMAGIAFGFHQLYKKYLLPLILGGREDRKQLERMEAGLSELSGSVAQTVTQLQTTLASVQELLIQQQQKIQELAHELAAAKATTSTNWILESQNINELKSEINSLKGLLLNRRQFPPSPSAPKIPSWQIPVKSPSPSSPAAVNHHSSSDISPVSNESTSSSPGKEGHSPEGSTVTYHLLGPQEEGEGVVDVKGQVRMEVQGEEEKREDKEDEEDEEDDDVSHVDEEDCLGVQREDRRGGDGQINEQVEKLRRPEGASNESERD [R49E]	decreasing interaction
